Assay results published in US20260028405A1 (ICAHN SCHOOL OF MEDICINE AT MOUNT SINAI, published 2026).

B3: biotinylated human CD64 protein (receptor, UniProt P12314 16-288, looked up)
chain: QVDTTKAVITLQPPWVSVFQEETVTLHCEVLHLPGSSSTQWFLNGTATQTSTPSYRITSASVNDSGEYRCQRGLSGRSDPIQLEIHRGWLLLQVSSRVFTEGEPLALRCHAWKDKLVYNVLYYRNGKAFKFFHWNSNLTILKTNISHNGTYHCSGMGKHRYTSAGISVTVKELFPAPVLNASVTSPLLEGNLVTLSCETKLLLQRPGLQLYFSFYMGSKTLRGRNTSSEYQILTARREDSGLYWCEAATEDGNVLKRSPELELQVLGLQLPTP
modifications: biotinylated
notes: also called human Fc receptor CD64

How the values were obtained:
[1] = target: human CD16a on cells (primary NK cells; engineered reporter cells) (human, UniProt P08637 17-254); test: cell-based or functional assay
human CD16a on cells (primary NK cells; engineered reporter cells), sequence (P08637 17-254, change not shown): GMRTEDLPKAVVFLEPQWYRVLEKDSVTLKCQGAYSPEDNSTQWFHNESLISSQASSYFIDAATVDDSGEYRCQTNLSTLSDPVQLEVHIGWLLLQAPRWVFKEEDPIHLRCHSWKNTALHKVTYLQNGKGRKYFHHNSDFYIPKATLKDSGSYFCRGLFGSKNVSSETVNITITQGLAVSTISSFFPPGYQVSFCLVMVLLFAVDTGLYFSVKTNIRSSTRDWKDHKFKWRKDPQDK

[2] = target: B3; test: ELISA, immobilised antibody detected with biotinylated human CD64
Description: (§1) FIGS. 7A, 7B, and 7C illustrate the properties of chF9H4-DANA, a chimeric antibody in which the variable and the CH1 region of F9H4 is fused to the CH2 and CH3 regions of hIgG1 comprising a D265A N297A (DANA) mutation (labeled as “F9H4-hIG1-DANA” in FIGS. 7A, 7B, and 7C). FIG. 7A. The indicated antibodies were immobilized in ELISA plates and detected by biotinylated human CD64 protein, which was added in the indicated concentrations. Highest absorbance for hIgG wild type. FIG. 7B. ELISA for reactivity of antibodies against human CD16a. Highest absorbance for F9H4-hIG1-DANA. FIG. 7C. Inhibition of CD16a shedding assay with primary NK cells that were treated with 30 ng/mL PMA to induce CD16a shedding. Highest absorbance for F9H4-hIG1-DANA. Data represent three independent experiments (FIGS. 7A, 7B, and 7C) and mean+/−SD of triplicates even though the SD bars are so small that cannot be seen (FIG. 7C).

[3] = target: T1, human CD16a protein (human, UniProt P08637 17-208, biotinylated in the bead assay (FIG. 4B, 4C)); test: ELISA on human CD16a
T1 construct: construct not described; also called biotinylated CD16a; FcγRIIIa
T1 sequence (P08637 17-208 limits assumed): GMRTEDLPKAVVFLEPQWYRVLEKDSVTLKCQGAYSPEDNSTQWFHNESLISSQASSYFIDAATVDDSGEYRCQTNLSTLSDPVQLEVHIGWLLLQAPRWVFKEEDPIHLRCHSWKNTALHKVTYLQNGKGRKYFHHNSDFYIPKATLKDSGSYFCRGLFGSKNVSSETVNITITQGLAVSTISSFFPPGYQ

[4] = target: T2, hIgG wild type; test: ELISA, immobilised antibody detected with biotinylated human CD64
T2 construct: it may be the same as hIgG1
Description: as §1

[5] = target: T1, human CD16a protein; test: ELISA on human CD16a protein
[6] = target: T3, recombinant CD16a D2 domain (UniProt P08637 107-208, limits assumed); test: ELISA, immobilised CD16a D2 domain [panel D2]
T3 construct: domain: D2
T3 sequence (P08637 107-208 limits assumed): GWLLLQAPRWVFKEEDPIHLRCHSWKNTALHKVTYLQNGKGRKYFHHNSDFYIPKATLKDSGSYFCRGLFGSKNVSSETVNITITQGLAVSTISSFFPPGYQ
Description: FIGS. 4A, 4B, 4C, 4D, 4E, and 4F illustrate the characterization of F9H4. FIG. 4A. An ELISA was performed with immobilized F9H4 or the positive controls, respectively. For detection, biotinylated antibodies against the indicated subclasses of murine IgG were used. From left to right: Anti-mIgG1, anti-mIgG2a, anti-mIgG2b, anti-mIgG3. FIG. 4B. Validation of a bead assay to assess CD16a binding to hIgG1. […] Two left peaks (overlapping): uncoated and DANA mutant. Right peak: hIgG1. FIG. 4C. Bead assay for CD16a binding to hIgG1. hIgG1-coated beads were incubated with 1 μg/mL biotinylated CD16a plus the indicated antibodies, followed by incubation with PE-labelled streptavidin and analysis by flow cytometry. Peaks from left to right: 30, 10, 3, and 1 μg/mL. FIG. 4D. Jukart cells were engineered to express human CD16a and luciferase in response to CD16a engagement. Cells were treated overnight with the indicated antibodies, followed by addition of luciferin and analyses in plate reader. […] Data represent two (FIG. 4D) or three (FIGS. 4A, 4B, 4C, and 4F) independent experiments, are mean+/−SE of quadruplicates (FIG. 4 D), and were analyzed by non-linear regression (FIGS. 4D and 4F).
To shed light into the mechanism by which F9H4 inhibit the cleavage, the two immunoglobulin-like domains, D1 and D2 of CD16a were examined. […] It was determined by ELISA that F9H4 binds full length CD16a and D1, but not D2. […]

B1: anti-CD16a antibody 3G8 (antibody)
chain 1: QVTLKESGPGILQPSQTLSLTCSFSGFSLRTSGMGVGWIRQPSGKGLEWLAHIWWDDDKRYNPALKSRLTISKDTSSNQVFLKIASVDTADTATYYCAQINPAWFAYWGQGTLVTVS
chain 2: DIVLTQSPASLAVSLGQRATISCKASQSVDFDGDSFMNWYQQKPGQPPKLLIYTTSNLESGIPARFSASGSGTDFTLNIHPVEEEDTATYYCQQSNEDPYTFGGGTKLELK
B1 was tested, and the “EC50 (read off the curve), luciferase reporter of CD16a engagement (RLU)” value [1] was roughly 0.1 µg/mL.

B2: chF9H4-DANA, chimeric F9H4 with hIgG1 CH2-CH3 carrying D265A N297A (antibody)
heavy: QVQLQQPGSELVRPGASVKLSCKASGYTFTSYWMHWVKQRHGQGLEWIGNIYPGSGSTNYDEKFKSKGTLTVDTSSSTAYMHLGSLTSEDSAVYYCTMRYGGYYGYYFDYWGQGTTLTVSSAKTTAPSVYPLAPVCGDTTGSSVTLGCLVKGYFPEPVTLTWNSGSLSSGVHTFPAVLQSDLYTLSSSVTVTSSTWPSQSITCNVAHPASSTKVDKKIEPRGPTIKPCPPCKCPAPELLGGPSVFLFPPKPKDTLMISRTPEVTCVVVAVSHEDPEVKFNWYVDGVEVHNAKTKPREEQYASTYRVVSVLTVLHQDWLNGKEYKCKVSNKALPAPIEKTISKAKGQPREPQVYTLPPSRDELTKNQVSLTCLVKGFYPSDIAVEWESNGQPENNYKTTPPVLDSDGSFFLYSKLTVDKSRWQQGNVFSCSVMHEALHNHYTQKSLSLSPGK
light: EIVLTQSPTTMAASPGEKITITCSTTSSISSNYLHWYQQKPGFSPKLLIYRTSNLASGVPARFSGSGSGTSYSLTIGTMEAEDVATYYCQQGSSIPLTFGAGTKLELKRADAAPTVSIFPPSSEQLTSGGASVVCFLNNFYPKDINVKWKIDGSERQNGVLNSWTDQDSKDSTYSMSSTLTLTKDEYERHNSYTCEATHKTSTSPIVKSFNRNEC
notes: also called chF8H4-DANA; F9H4-hIG1-DANA; copies: 2 + 2
For B2, the binding result [2] was “no binding (tested: 1 µg/mL)” and the “EC50 (read off the curve)” value [3] was roughly 0.04 µg/mL.

In the case of B3, the “EC50 (read off the curve)” value [4] is reported as roughly 0.006 µg/mL.

B4: anti-CD16a antibody F9H4 (antibody, V domains shown)
VH: QVQLQQPGSELVRPGASVKLSCKASGYTFTSYWMHWVKQRHGQGLEWIGNIYPGSGSTNYDEKFKSKGTLTVDTSSSTAYMHLGSLTSEDSAVYYCTMRYGGYYGYYFDYWGQGTTLTVSS
VL: EIVLTQSPTTMAASPGEKITITCSTTSSISSNYLHWYQQKPGFSPKLLIYRTSNLASGVPARFSGSGSGTSYSLTIGTMEAEDVATYYCQQGSSIPLTFGAGTKLELKR
notes: also called F9H14
With B4 the “EC50 (read off the curve)” value [5] was roughly 0.001 µg/mL and the binding result [6] was “no binding (tested: 10 µg/mL)”.
